Molecular target: HLA-A2 molecules on T2 cells (human)
Experiment: T2 cell HLA-A2 upregulation assay, flow cytometry, peptide 25 µg/ml; negative control
Conditions: remark: other sources report otherwise

T2 binding (MFI): 260 MFI
Binder: HLFGYSWYK [CAP-7 peptide]

— patent US20090035266A1
